Laboratory results reported in PMC10128029.

Columns and labels:
Assay in all cases: EMSA
[1] = tested on: TilS A244T (Burkholderia cenocepacia HI2424); details: unmodified in vitro transcript; EMSA: 3.5 nM 32P-tRNA, 220 nM-39.0 µM TilS, 100 mM Tris-HCl pH 7.8, 5 mM DTT, 10 mM MgCl2, 10 mM KCl, 10% glycerol, 37 C, 30 min; native 10% PAGE
[2] = tested on: TilS N274Y (Burkholderia cenocepacia HI2424); details: unmodified in vitro transcript; EMSA: 3.5 nM 32P-tRNA, 220 nM-39.0 µM TilS, 100 mM Tris-HCl pH 7.8, 5 mM DTT, 10 mM MgCl2, 10 mM KCl, 10% glycerol, 37 C, 30 min; native 10% PAGE
[3] = tested on: TilS N445K (Burkholderia cenocepacia HI2424); details: unmodified in vitro transcript; EMSA: 3.5 nM 32P-tRNA, 220 nM-39.0 µM TilS, 100 mM Tris-HCl pH 7.8, 5 mM DTT, 10 mM MgCl2, 10 mM KCl, 10% glycerol, 37 C, 30 min; native 10% PAGE
[4] = tested on: TilS P421L (Burkholderia cenocepacia HI2424); details: unmodified in vitro transcript; EMSA: 3.5 nM 32P-tRNA, 220 nM-39.0 µM TilS, 100 mM Tris-HCl pH 7.8, 5 mM DTT, 10 mM MgCl2, 10 mM KCl, 10% glycerol, 37 C, 30 min; native 10% PAGE
[5] = tested on: TilS WT (Burkholderia cenocepacia HI2424); details: 10 mM Mg2+; unmodified in vitro transcript; EMSA: 3.5 nM 32P-tRNA, 220 nM-39.0 µM TilS, 100 mM Tris-HCl pH 7.8, 5 mM DTT, 10 mM MgCl2, 10 mM KCl, 10% glycerol, 37 C, 30 min; native 10% PAGE

## tRNAIle2 (CAU)
[1]
  Kd: 4.6 µM
[2]
  Kd: 3.3 µM
[3]
  Kd: 3.1 µM
[4]
  Kd: 4.5 µM
[5]
  Kd: 2.6 µM
